target: rat skeletal muscle sodium channel rNaV1.4 (UniProt P15390); assay: washing-out time-course analysis (electrophysiology); settings: read off a plot
Chain of UniProt P15390 (P15390 whole entry): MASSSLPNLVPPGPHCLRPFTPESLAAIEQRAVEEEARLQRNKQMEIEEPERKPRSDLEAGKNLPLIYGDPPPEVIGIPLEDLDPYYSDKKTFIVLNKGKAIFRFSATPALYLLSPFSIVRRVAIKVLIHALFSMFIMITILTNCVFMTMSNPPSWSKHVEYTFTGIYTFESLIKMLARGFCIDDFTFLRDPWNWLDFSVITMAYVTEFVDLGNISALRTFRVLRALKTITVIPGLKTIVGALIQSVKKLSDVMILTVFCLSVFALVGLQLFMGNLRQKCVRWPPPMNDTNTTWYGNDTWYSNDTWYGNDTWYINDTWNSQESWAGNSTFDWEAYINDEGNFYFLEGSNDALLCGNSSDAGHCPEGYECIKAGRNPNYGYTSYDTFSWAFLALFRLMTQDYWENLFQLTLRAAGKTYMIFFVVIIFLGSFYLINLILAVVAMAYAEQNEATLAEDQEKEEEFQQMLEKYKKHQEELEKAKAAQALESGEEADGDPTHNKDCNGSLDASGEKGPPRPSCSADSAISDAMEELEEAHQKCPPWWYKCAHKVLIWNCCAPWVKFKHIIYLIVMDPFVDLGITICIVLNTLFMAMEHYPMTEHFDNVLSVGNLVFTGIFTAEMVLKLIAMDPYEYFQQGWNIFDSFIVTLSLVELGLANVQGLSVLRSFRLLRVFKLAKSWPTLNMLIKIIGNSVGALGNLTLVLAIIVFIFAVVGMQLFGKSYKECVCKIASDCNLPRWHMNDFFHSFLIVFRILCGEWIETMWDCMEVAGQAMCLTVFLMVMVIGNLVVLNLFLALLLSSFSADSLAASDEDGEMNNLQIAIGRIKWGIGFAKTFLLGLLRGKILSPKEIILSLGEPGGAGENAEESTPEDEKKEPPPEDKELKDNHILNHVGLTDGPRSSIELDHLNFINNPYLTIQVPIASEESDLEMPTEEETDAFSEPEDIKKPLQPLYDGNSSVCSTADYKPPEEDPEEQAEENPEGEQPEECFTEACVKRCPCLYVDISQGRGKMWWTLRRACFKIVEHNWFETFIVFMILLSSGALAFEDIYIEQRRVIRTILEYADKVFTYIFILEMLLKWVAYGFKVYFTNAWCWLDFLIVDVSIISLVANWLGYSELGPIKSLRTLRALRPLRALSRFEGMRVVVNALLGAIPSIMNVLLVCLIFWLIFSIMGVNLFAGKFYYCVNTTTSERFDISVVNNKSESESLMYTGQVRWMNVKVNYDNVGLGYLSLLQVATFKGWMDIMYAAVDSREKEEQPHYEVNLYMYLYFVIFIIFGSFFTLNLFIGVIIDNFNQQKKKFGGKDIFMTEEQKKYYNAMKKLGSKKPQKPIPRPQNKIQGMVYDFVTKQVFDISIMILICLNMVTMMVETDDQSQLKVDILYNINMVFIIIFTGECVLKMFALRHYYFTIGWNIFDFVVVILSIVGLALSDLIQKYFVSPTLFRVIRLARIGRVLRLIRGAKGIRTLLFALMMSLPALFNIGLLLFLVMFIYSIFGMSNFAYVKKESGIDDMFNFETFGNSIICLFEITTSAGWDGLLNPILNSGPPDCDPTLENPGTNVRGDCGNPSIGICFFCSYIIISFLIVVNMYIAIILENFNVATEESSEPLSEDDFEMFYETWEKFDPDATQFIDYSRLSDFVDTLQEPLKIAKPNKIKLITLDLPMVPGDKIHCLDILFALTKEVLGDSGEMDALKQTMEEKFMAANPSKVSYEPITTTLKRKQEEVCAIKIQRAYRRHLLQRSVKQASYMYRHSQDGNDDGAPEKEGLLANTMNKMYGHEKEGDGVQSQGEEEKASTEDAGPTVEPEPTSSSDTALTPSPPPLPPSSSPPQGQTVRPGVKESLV

Substance	other: τoff [s]
BmK-M9 R41G	1700
BmK-M9 E20G	1600
BmK-M9 K8G	1700
BmK-M9 D28G	1800
BmK-M9 K50G	1600
BmK-M9 R54G	1800
BmK-M9 R58G	2000
BmK-M9 H64G	1800
BmK-M9 E32G	1800
BmK-M9 Y42G	17
BmK-M9 E10G	1700
BmK-M9 K62G	8.5
BmK-M9 D3G	1900
BmK-M9 K24G	1800
BmK-M9 H15G	1500
BmK-M9 D53G	1700
BmK-M9 R2G	1300
